Measured values as given in patent US20220306758A1 (Regeneron, published 2022).

T1: human BCMA on cells (endogenous, on multiple myeloma and lymphoma cell lines) (human, UniProt Q02223 1-184)
T1 sequence: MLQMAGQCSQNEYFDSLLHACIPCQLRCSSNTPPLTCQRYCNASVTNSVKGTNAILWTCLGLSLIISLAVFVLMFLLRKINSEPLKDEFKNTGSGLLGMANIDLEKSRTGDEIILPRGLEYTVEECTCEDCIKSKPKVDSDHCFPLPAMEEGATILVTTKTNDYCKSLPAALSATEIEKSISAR

T2: human BCMA-MFC (extracellular domain of human BCMA with C-terminal mFc tag) (human)
T2 construct: also called hBCMA.mFc
T2 chain: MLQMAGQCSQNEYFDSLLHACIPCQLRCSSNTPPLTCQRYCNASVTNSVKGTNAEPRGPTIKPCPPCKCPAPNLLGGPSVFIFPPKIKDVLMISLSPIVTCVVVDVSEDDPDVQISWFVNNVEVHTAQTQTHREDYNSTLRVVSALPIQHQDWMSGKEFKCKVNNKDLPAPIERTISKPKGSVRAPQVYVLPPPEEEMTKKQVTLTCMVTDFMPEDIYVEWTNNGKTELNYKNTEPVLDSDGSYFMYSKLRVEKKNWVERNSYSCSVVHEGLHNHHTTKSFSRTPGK

T3: human BCMA-MMH (extracellular domain of human BCMA with C-terminal myc-myc-hexahistidine tag) (human)
T3 construct: Monomeric antigen; the entry holds the ectodomain and the myc-myc-His tag; also called hBCMA.mmh; hBCMA.mmH
T3 chain: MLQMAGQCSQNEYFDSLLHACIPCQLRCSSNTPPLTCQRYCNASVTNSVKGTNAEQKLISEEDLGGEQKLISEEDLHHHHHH

T4: mouse BCMA-MFC (BCMA with C-terminal mFc tag) (mouse)
T4 construct: Tested at 30 nM only
T4 chain: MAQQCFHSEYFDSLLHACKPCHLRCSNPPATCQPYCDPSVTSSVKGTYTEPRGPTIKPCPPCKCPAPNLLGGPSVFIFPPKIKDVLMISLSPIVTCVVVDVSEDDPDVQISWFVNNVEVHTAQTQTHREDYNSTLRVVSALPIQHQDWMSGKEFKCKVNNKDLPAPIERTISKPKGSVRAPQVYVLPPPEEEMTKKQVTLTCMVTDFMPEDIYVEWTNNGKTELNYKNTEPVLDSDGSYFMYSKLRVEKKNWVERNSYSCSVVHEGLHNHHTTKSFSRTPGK


Tests used:
[1] = biological target: T1, human BCMA on cells (endogenous, on …); test: cell-based or functional assay
[2] = biological target: T2, human BCMA-MFC (extracellular domain of …); test: SPR, Biacore, mAb captured by anti-hFc, 25 C
Protocol: (§1) The CM5 Biacore sensor surface was derivatized by amine coupling with a monoclonal mouse anti-human Fc antibody (GE, #BR-1008-39) to capture purified anti-BCMA mAbs and anti-BCMA×anti-CD3 bispecific mAbs. All Biacore binding studies were performed in a buffer composed of 0.01M HEPES pH 7.4, 0.15M NaCl, 3 mM EDTA, 0.05% v/v Surfactant P20 (HBS-ET running buffer). […] Antigen samples were then injected over the anti-BCMA and anti-BCMA×anti-CD3 bispecific mAbs captured surfaces at a flow rate of 30 μL/minute. Antibody-reagent association was monitored for 5 minutes while dissociation in HBS-ET running buffer was monitored for 10 minutes. All of the binding kinetics experiments were performed at 25° C. Kinetic association (kₐ) and dissociation (kd) rate constants were determined by fitting the real-time sensorgrams to a 1:1 binding model using Scrubber 2.0c curve fitting software. Binding dissociation equilibrium constants (KD) and dissociative half-lives (t½) were calculated from the kinetic rate constants as: […]

[3] = biological target: T3, human BCMA-MMH (extracellular domain of …); test: SPR, Biacore, mAb captured by anti-hFc, 25 C
Protocol: as §1

[4] = biological target: T4, mouse BCMA-MFC (BCMA with C-terminal …); test: SPR, Biacore, mAb captured by anti-hFc, 25 C
Protocol: as §1

[5] = biological target: T5, monkey BCMA-MFC (monkey BCMA with C-terminal mFc tag) (monkey); test: SPR, Biacore, mAb captured by anti-hFc, 25 C
T5 construct: also called mfBCMA.mFc
Protocol: as §1

[6] = biological target: T6, monkey BCMA-MMH (monkey BCMA with C-terminal myc-myc-hexahistidine tag) (monkey); test: SPR, Biacore, mAb captured by anti-hFc, 25 C
T6 construct: The words 'extracellular domain' stand before human BCMA in the sentence and are read as applying to the monkey construct too; also called mfBCMA.mmh
Protocol: as §1

[7] = biological target: T1, human BCMA on cells (endogenous, on …); test: cell-based or functional assay; remark: listed apart in the source
[8] = biological target: T1, human BCMA on cells (endogenous, on …); test: cell-based or functional assay; remark: listed apart in the source
[9] = biological target: T1, human BCMA on cells (endogenous, on …); test: cell-based or functional assay; remark: listed apart in the source

Row | Binder | MFI fold change over cells incubated in media only, NCI-H929, 18 h with 67 nM antibody, then stained with the same antibody [1] [fold] | MFI fold change over cells incubated in media only, NCI-H929, 18 h with 667 nM antibody, then stained with the same antibody [1] [fold] | 30 nM hBCMA.mFc Bind (RU) [2] [RU] | Kd [2] [nM] | koff [2] [s⁻¹] | kon [2] [M⁻¹ s⁻¹] | t½ [2] [min] | 90 nM hBCMA.mmh Bind (RU) [3] [RU] | Kd [3] [nM] | koff [3] [s⁻¹] | kon [3] [M⁻¹ s⁻¹] | t½ [3] [min] | 30 nM mfBCMA.mFc Bind (RU) (mouse BCMA-MFC by the table's title) [4] | Kd [4] [nM] | koff [4] [s⁻¹] | kon [4] [M⁻¹ s⁻¹] | t½ [4] [min] | 30 nM mfBCMA.mFc Bind (RU) [5] [RU] | MFI fold change over cells incubated in media only, Molp8, 18 h with 67 nM antibody, then stained with the same antibody [7] [fold] | MFI fold change over cells incubated in media only, Molp8, 18 h with 667 nM antibody, then stained with the same antibody [7] [fold] | further results
1 | mAb16711 (antibody, V domains shown, Anti-BCMA monoclonal antibody; human Fc (captured by anti-human Fc)) VH: QVQLVESGGGVVQPGRSLRLSCAASGFTFSTYGIHWVRQAPGKGLEWVAVILHDGSSNYYAESVKGRFIISRDNSKNTLYLQMNSLRAEDTALYYCTKRYSEAAGPNWFDPWGQGTLVTVSS VL: DIQMTQSPSSVSASVGDRVTITCRASRGISSWLAWYQQKPGKAPKLLIHAASSLQSGVPSRFSGSGSGTDFTLTISSLQPEDFATYYCQQAISFPFTFGPGTKVDIK | 2.8 | 2.1 | 114 | 0.103 | 0.00019 | 1.85e+06 | 60.8 | 22.2 | 1.73 | 0.00347 | 2.01e+06 | 3.3 | 90 | 1.02 | 0.0011 | 1.07e+06 | 10.5 | 0.9 | 3.5 | 3 | binding result [5]: no binding (tested: 30 nM); 90 nM mfBCMA.mmh Bind (RU) [6]: -0.5 RU; MFI fold change over cells incubated in media only, U266, 18 h with 67 nM antibody, then stained with the same antibody [8]: 2.2 fold; MFI fold change over cells incubated in media only, U266, 18 h with 667 nM antibody, then stained with the same antibody [8]: 2.2 fold
2 | mAb16716 (antibody, V domains shown, Anti-BCMA monoclonal antibody; human Fc (captured by anti-human Fc)) VH: not shown VL: DIQMTQSPSSVSASLGDRVTITCRASQGISSWLAWYQRKPGKAPKLLIYAASSLQSGVPSRFSGSGSGADFTLTISSLQPEDFATYYCQQAKSVPFTFGPGTKVDIK |  |  | 120 | 0.0968 | 8.35e-05 | 862000 | 138 | 26.4 | 3.56 | 0.00299 | 841000 | 3.9 | 33.4 | 18.8 | 0.00385 | 205000 | 3 |  |  |  | 90 nM mfBCMA.mmh Bind (RU) [6]: 0.8 RU; binding result [6]: no binding (tested: 90 nM)
3 | mAb16732 (REGN4514) (antibody, V domains shown, Anti-BCMA monoclonal antibody; human Fc (captured by anti-human Fc)) VH: EVQLVESGGGLVQPGRSLRLSCAASGFTFDDYAMHWVRQAPGKGLEWVSGISWNSGNMGYADSVKGRFTISRDNAKNSLFLQMHSLRAEDTAFYYCAKVRLTAFDFWGQGTLVTVSS VL: DIQMTQSPSSLSASVGDRVTITCRTSQSIGNYLNWFQQKPGKAPKLLIYTASSLQNGVPSRFTGSGSGTDFTLTISSLQPEDFVIYYCQQSFSTPYTFGQGTKLEIK |  |  | 124 | 0.0422 | 4.53e-05 | 1.07e+06 | 255 | 25.3 | 2.69 | 0.00285 | 1.06e+06 | 4.1 | 110 | 0.677 | 0.000269 | 397000 | 43 | 40.3 |  |  | Kd [5]: 14.7 nM; koff [5]: 0.00724 s⁻¹; kon [5]: 492000 M⁻¹ s⁻¹; t½ [5]: 1.6 min
4 | mAb21581, bivalent anti-BCMA antibody (parent of REGN5458) (antibody, V domains shown) VH: EVQLVESGGGLVQPGGSLRLSCAASGFTFSNFWMTWVRQAPGKGLEWVANMNQDGSEKYYVDSVKGRFTISRDNAKSSLYLQMNSLRAEDTAVYYCARDREYCISTSCYDDFDYWGQGTLVTVSS VL: not shown | 1.2 | 1.4 |  |  |  |  |  |  |  |  |  |  |  |  |  |  |  |  | 2.3 | 3.7 | MFI fold change over cells incubated in media only, U266, 18 h with 67 nM antibody, then stained with the same antibody [8]: 1.8 fold; MFI fold change over cells incubated in media only, U266, 18 h with 667 nM antibody, then stained with the same antibody [8]: 2.3 fold; MFI fold change over cells incubated in media only, MM1S, 18 h with 67 nM antibody, then stained with the same antibody [9]: 7.3 fold; MFI fold change over cells incubated in media only, MM1S, 18 h with 667 nM antibody, then stained with the same antibody [9]: 7 fold
5 | mAb16747 (REGN4515) (antibody, V domains shown, Anti-BCMA monoclonal antibody; human Fc (captured by anti-human Fc)) VH: QVQLVESGGGLVKPGGSLRLSCAASGFTFSDYYISWIRQAPGKGLEWVSYISSSGSSIKYADSVKGRFTISRDNAKNSLYLQMNSLRAEDTAVYYCAREGGNYGMDVWGQGTTVTVSS VL: DIQMTQSPSSVSASVGDRVTITCRASQGINNWLVWYQQKPGKAPKLLIYAATSLQSGVPSRFSGSGSGTDFTLTISSLQPEDFATYYCQQANSFPPTFGQGTKLEIK | 1.8 | 2.1 | 146 | 0.0633 | 8.95e-05 | 1.41e+06 | 129 | 31.4 | 2.84 | 0.00247 | 869000 | 4.7 | 108 | 4.42 | 0.00418 | 947000 | 2.8 | 101 | 2.2 | 0.6 | Kd [5]: 3.37 nM; koff [5]: 0.00716 s⁻¹; kon [5]: 2.13e+06 M⁻¹ s⁻¹; t½ [5]: 1.6 min; MFI fold change over cells incubated in media only, U266, 18 h with 67 nM antibody, then stained with the same antibody [8]: 1.5 fold; MFI fold change over cells incubated in media only, U266, 18 h with 667 nM antibody, then stained with the same antibody [8]: 1.7 fold
